The values below come from patent publication US20230416362A1 (INDUSTRIAL TECHNOLOGY RESEARCH INSTITUTE, published 2023).

The target in assay [1] is T1, hTIGIT (ELISA of Table 7) (human, UniProt Q495A1 22-141, limits assumed).
T1 construct: whole entry named; also called human TIGIT
T1 chain: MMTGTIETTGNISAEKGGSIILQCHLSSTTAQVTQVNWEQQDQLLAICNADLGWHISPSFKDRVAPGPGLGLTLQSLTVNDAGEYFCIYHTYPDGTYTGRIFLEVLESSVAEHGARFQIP
The assay is described as follows: ELISA binding. On the technique in general: ELISA stands for enzyme-linked immunosorbent assay.

For assay [2], the target named is T2, mTIGIT (ELISA of Table 7) (mouse, UniProt P86176 29-145, limits assumed).
T2 construct: also called mouse TIGIT
T2 sequence (looked up): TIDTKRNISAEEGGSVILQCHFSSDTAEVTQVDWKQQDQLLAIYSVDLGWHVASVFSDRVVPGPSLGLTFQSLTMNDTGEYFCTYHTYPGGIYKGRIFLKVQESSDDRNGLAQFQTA
The assay is described as follows: ELISA binding.

For assay [3], the target named is T2, mTIGIT (ELISA of Table 7). The assay is described as follows: mTIGIT/mCD155 competition ELISA; competitor mCD155.
The target in assay [4] is T3, human TIGIT IgV domain Q56A (human, UniProt Q495A1 22-141, limits assumed).
T3 construct: Made in Expi293F cells, purified on Strep-Tactin XT; Limits of the IgV domain not readable, whole entry named; also called Q56 single alanine substitution mutant
T3 chain: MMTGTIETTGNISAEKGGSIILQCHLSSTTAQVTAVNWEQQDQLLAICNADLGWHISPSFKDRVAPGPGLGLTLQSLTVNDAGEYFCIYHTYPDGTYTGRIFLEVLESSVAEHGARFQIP
The assay is described as follows: ELISA on TIGIT IgV point mutants. The method, then: (§1) To further identify the amino acid residues of TIGIT that interact with the recombinant 7D4 mIgG2a antibody, single alanine substitution mutants were generated in the human TIGIT IgV domain by site-directed mutagenesis using standard molecular techniques. ELISA binding assays were then performed to assess 7D4 binding strength.
(§2) To identify the amino acid residues of TIGIT that interact with the humanized 7D4 variant, 1A11 (in human IgG1-DLE isotype), ELISA binding assays with the single alanine substitution mutants were performed to assess 1A11 binding strength. […] Similar to the parental mouse 7D4 antibody, Q56 and Y106 single alanine substitution mutants completely abolished the binding of 1A11.

For assay [5], the target named is T4, human TIGIT IgV domain G74A (human, UniProt Q495A1 22-141, limits assumed).
T4 construct: Made in Expi293F cells, purified on Strep-Tactin XT; Limits of the IgV domain not readable, whole entry named; also called G74 single alanine substitution mutant
T4 chain: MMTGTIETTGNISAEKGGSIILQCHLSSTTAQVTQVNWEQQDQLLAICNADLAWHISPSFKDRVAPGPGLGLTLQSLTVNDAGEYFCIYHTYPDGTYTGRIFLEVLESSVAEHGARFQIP
The assay is described as follows: ELISA on TIGIT IgV point mutants. The method, then: as §1, §2

Assay [6] deals with T5, human TIGIT IgV domain Y106A (human, UniProt Q495A1 22-141, limits assumed).
T5 construct: Made in Expi293F cells, purified on Strep-Tactin XT; Limits of the IgV domain not readable, whole entry named; also called Y106 single alanine substitution mutant
T5 chain: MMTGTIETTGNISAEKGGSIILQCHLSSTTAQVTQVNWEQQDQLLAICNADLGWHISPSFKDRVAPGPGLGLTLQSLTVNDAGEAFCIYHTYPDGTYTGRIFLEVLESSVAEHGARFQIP
Put plainly: ELISA on TIGIT IgV point mutants. The protocol: as §1, §2

In assay [7] the target is T6, human TIGIT IgV domain Y110A (human, UniProt Q495A1 22-141, limits assumed).
T6 construct: Made in Expi293F cells, purified on Strep-Tactin XT; Limits of the IgV domain not readable, whole entry named; also called Y110 single alanine substitution mutant
T6 chain: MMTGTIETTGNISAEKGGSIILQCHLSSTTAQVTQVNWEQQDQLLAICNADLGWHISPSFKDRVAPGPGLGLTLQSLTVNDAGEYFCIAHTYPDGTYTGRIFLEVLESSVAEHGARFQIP
The assay is described as follows: ELISA on TIGIT IgV point mutants. The method, then:
as §1, §2

In assay [8] the target is T7, human TIGIT IgV domain H111 single alanine substitution mutant (human, UniProt Q495A1 22-141, limits assumed).
T7 construct: Printed as "H111" in the list of mutants; the text calls it a single alanine substitution mutant; Limits of the IgV domain not readable, whole entry named; also called H111A
T7 chain: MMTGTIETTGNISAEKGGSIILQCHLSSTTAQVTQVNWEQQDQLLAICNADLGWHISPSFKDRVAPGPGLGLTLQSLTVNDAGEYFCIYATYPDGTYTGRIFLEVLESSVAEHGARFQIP
Put plainly: ELISA on TIGIT IgV point mutants. The method, then: as §1, §2

Assay [9] has as its target T8, human TIGIT expressed on cells (TIGIT/Jurkat cells; MJ[G11] cells; PBMC T cells) (human, UniProt Q495A1 22-244).
T8 construct: The cell line is named under assay; also called human TIGIT-expressing Jurkat cells
T8 sequence: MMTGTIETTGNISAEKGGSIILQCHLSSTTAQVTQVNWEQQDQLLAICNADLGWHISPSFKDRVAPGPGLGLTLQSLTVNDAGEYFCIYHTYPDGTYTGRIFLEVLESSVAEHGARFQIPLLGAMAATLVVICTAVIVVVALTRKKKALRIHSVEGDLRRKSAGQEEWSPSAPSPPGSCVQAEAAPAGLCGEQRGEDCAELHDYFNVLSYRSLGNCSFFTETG
Put plainly: flow cytometry on TIGIT/Jurkat cells. The method, then:
Sequential dilutions of Protein A column-purified 7D4, 2C9, and 3A9 antibodies were separately incubated with 5×10⁵ of human TIGIT-expressing Jurkat cells (TIGIT/Jurkat) in 50 μl of FACS buffer (0.2% BSA in Dulbecco's phosphate-buffered saline (DPBS) containing 0.09% sodium azide) on ice for 1 hour. After washing, the cells were stained with anti-mouse IgG conjugated with PE dyes and antibody binding strength was analyzed by flow cytometry.

The target of assay [10] is T9, TIGIT-biotin (TIGIT:CD155 Homogeneous Assay Kit, #72029) (human, UniProt Q495A1 22-141, limits assumed, biotin (site not stated)).
T9 construct: Kit reagent; also called human TIGIT
T9 chain: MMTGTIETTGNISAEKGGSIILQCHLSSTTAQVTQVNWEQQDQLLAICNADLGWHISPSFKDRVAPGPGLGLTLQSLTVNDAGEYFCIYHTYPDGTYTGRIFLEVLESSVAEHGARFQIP
Put plainly: AlphaLISA competition: TIGIT-biotin with antibody, then histidine-tagged CD155 as competitor. The protocol:
To evaluate inhibition of binding of TIGIT to CD155 by anti-TIGIT antibodies, AlphaLISA assays were performed using a TIGIT:CD155 Homogeneous Assay Kit (PBS Biosciences, #72029). Aliquots (6 μl) of solution containing TIGIT-biotin (final concentration 0.2 ng/μl) and 4-fold serial dilution of the test antibodies (final volume 2 μl) were added into a 384-well plate. The plates were covered with a lid and incubated at room temperature for 30 min. Then, 2 μl of histidine-tagged CD155 were added (final concentration 0.05 ng/μl) into each well and incubated at room temperature for 60 min. Finally, aliquots (5 μl) of streptavidin-conjugated donor beads (final concentration 10 μg/ml) and 5 μl of anti-His tag acceptor beads (final concentration 20 μg/ml) were added and the plate was incubated at room temperature for 30 min in the dark. AlphaLISA signals were measured on an EnSpire Alpha 2390 (Perkin-Elmer Life Sciences). 15A6 (U.S. Pat. No. 10,189,902) and MBSA43 (Thermo Fisher Scientific, #16-9500-82) were used as reference antibodies.
These antibodies were selected for further functional studies.
(In general: Alpha assays give light when donor and acceptor beads are brought close together.)

B1: 1G3 mIgG2a-DLE (antibody, V domains shown)
VH: DIQLVQSGGGLVKPGGSLRLSCAASGYTFTNYWIGWVRQTPGKGLEWVGDIYPGSSFTNSNEKFKGRFTISADKSKNTAYLQMNSLRAEDTAVYYCARDMVGYWYFDVWGQGTLVTVSS
VL: DIVLTQSPATLSASLGERATLSCSASSSVSYIHWYQQKPGQAPKLLIYTTSNLASGVPSRFSGSGSGTDFTLTISSLEAEDFATYYCHQWSRYPTFGGGTKLEIK
notes: Mouse IgG2a isotype with DLE (S239D/A330L/I332E) mutations at the Fc region
The term EC50 denotes the midpoint of the concentration-response curve. A high value points to a need for much substance. The term IC50 denotes the point on the concentration scale where inhibition reaches its midpoint. Low readings indicate greater potency, high ones weaker potency. With B1, the EC50 came out at 9.4 nM in assay [1] and 3.6 nM in assay [2]. In assay [3], this molecule had an IC50 of 61.7 nM.

B2: 1A11 hIgG1-DLE (antibody, V domains shown)
VH: EVQLVQSGGGLVKPGGSLRLSCAASGYTFTNYWIGWVRQTPGKGLEWVGDIYPGSSFTNSNEKFKGRFTISADKSKNTAYLQMNSLRAEDTAVYYCARLGRGYWYFDVWGQGTLVTVSS
VL: DIVLTQSPATLSASLGERATLSCSASSSVSYIHWYQQKPGQAPKLLIYTTSNLASGVPSRFSGSGSGTDFTLTISSLEAEDFATYYCQLFRSGSAFGGGTKLEIKR
notes: Human IgG1 with DLE mutations at the Fc region, expressed in CHO-S cells; also called humanized 7D4 variant 1A11 (in human IgG1-DLE isotype)
For B2, the binding result in assay [4] and in [6] was “no binding” each time. Also, the “reduction in binding against the wild type” value in assay [5], in assay [7] and in assay [8] was above 40% each time.

B3: 2F1 mIgG2a-DLE (antibody, V domains shown)
VH: DIQLVQSGGGLVKPGGSLRLSCAASGYTFTNYWIGWVRQTPGKGLEWVGDIYPGSSFTNSNEKFKGRFTISADKSKNTAYLQMNSLRAEDTAVYYCARVIVGYWYFDVWGQGTLVTVSS
VL: DIVLTQSPATLSASLGERATLSCSASSSVSYIHWYQQKPGQAPKLLIYTTSNLASGVPSRFSGSGSGTDFTLTISSLEAEDFATYYCHQWSRYPTFGGGTKLEIK
notes: as for B1
As to B3, the EC50 in assay [1] was 464 nM; in assay [2], 1.1 nM. Besides, the IC50 in assay [3] is 33.8 nM.

B4: hz7D4 mIgG2a (antibody, V domains shown)
VH: EVQLVQSGGGLVKPGGSLRLSCAASGYTFTNYWIGWVRQTPGKGLEWVGDIYPGSSFTNSNEKFKGRFTISADKSKNTAYLQMNSLRAEDTAVYYCARLGRGYWYFDVWGQGTLVTVSS
VL: DIVLTQSPATLSASLGERATLSCSASSSVSYIHWYQQKPGQAPKLLIYTTSNLASGVPSRFSGSGSGTDFTLTISSLEAEDFATYYCHQWSRYPTFGGGTKLEIK
In the case of B4, the EC50 in assay [1] was determined as 0.3 nM; in assay [2], 217 nM.

B5: 3H2 mIgG2a-DLE (antibody, V domains shown)
VH: DIQLVQSGGGLVKPGGSLRLSCAASGYTFTNYWIGWVRQTPGKGLEWVGDIYPGSSFTNSNEKFKGRFTISADKSKNTAYLQMNSLRAEDTAVYYCARIRLGYWYFDVWGQGTLVTVSS
VL: DIVLTQSPATLSASLGERATLSCSASSSVSYIHWYQQKPGQAPKLLIYTTSNLASGVPSRFSGSGSGTDFTLTISSLEAEDFATYYCHQWSRYPTFGGGTKLEIK
notes: as for B1
In the case of B5, the EC50 in assay [1] worked out at 0.9 nM; in assay [2], 0.7 nM. In assay [3], this molecule registered a half-inhibitory concentration (IC50) of 12.4 nM.

B6: recombinant 7D4 mIgG2a antibody (antibody, V domains shown)
VH: QVQLKHSGAELVRPGTSVKMSCKASGYTFTNYWIGWAKQRPGHGLEWIGDIYPGSSFTNSNEKFKGKATLTADKSSSTAYMQFSSLTSEDSAIYYCAKLGRGYWYFDVWGTGTSVTVSA
VL: DIVLTQSPAIMSASLGEEITLTCSASSSVSYIHWYQQKSGTSPKLLIYTTSNLASGVPSRFSGSGSGTFYSLTISSVEAEDAADYYCHQWSRYPTFGGGTKLEIK
notes: Recombinant form with mouse IgG2a constant region (vector pFUSEss-CHIg-mG2a); also called recombinant 7D4 antibody (in mouse IgG2a isotype)
Turning to B6, the binding result in assay [4] and in assay [6] was “no binding” each time. Moreover, the “reduction in binding against the wild type” value in assay [5] is 50%; in [7] it was above 50%; in assay [8], above 50%.

B7: 2C9 (antibody, V domains shown)
VH: DIQLKQSGAELVRPGASVKLSCKASGYTFTDSYINWVKQRPGQGLEWIARFYPGSGNTYYNEKFKGKATLTAEKSSSTAYMQLSSLTSEDSAVYFCAREAWLLFYGMDYWGQGTTVTVSS
VL: DIVLTQSPAIMSASPGEKVTISCSANSSVSYMYWYQQKPGSSPKPWIYRTSNLASGVPARFSGSGSGTSYSLTISSMEAEDAATYYCQQYHSYPLTFGAGTKLELK
notes: Mouse monoclonal antibody from hybridoma clone 2C9, Protein A purified; also called anti-TIGIT monoclonal antibody 2C9
By Kd is commonly meant the concentration at which binding is half-saturated. A higher Kd goes with weaker binding. B7: binding in assay [9] was characterised by a dissociation constant (Kd) of 2 nM. In assay [10], this molecule registered an IC50 of 0.4 nM.

B8: 3A9 (antibody, V domains shown)
VH: QVQLQQPGAELVRPGSSVKLSCKASGYTFTSYWMHWVKQRPIQGLEWIGNIDPSDSATHYNQKFKDKATLTVDKSSSTAYMHLSSLTSEDSAVYYCARTGIDYGSSYFDYWGQGTILTVSS
VL: DIVLTQSPASLAVSLGQRATISCRASQSVSTSSYSYIHWYQQKPGQPPKLLIKYASNLESGVPARFSGSGSGTDFTLNIHPVEEEDTATYYCQHNWEIPRTFGGGTKLEIK
notes: Mouse monoclonal antibody from hybridoma clone 3A9, Protein A purified; also called anti-TIGIT monoclonal antibody 3A9
In the case of B8, in [9], binding was characterised by a dissociation constant (Kd) of 1.86 nM. This molecule also gave an IC50 in assay [10] of 0.55 nM.
